For data set [1], the target named is T1, Angiogenin peptide (Bachem), P03950 (not fully specified).
T1 chain: ENGLPVHLDQSIFRR

For data set [2], the target named is T2, β-casein, P02666.
T2 chain: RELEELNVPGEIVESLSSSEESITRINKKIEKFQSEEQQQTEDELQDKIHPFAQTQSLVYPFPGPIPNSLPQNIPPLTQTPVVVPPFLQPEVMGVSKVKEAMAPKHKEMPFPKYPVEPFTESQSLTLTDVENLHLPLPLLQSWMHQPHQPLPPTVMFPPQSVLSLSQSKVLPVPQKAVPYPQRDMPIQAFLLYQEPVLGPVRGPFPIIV

The target of data set [3] is κ-casein, P02668.
Chain of κ-casein, P02668 (P02668 22-190): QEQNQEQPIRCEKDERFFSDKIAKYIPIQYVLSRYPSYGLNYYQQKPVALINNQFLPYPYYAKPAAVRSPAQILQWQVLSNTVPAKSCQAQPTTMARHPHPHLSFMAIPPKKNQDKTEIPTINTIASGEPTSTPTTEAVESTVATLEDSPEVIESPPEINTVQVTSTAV

B1: iwm2s.pk015.c9 cathepsin L-like protease of western corn rootworm midgut (protein)
chain: MKLLILAATLIVAINANLSAFEQWTSFKATHNKFYNVIEDKLRFAVFQENLRKIDAHNAKYEKGEETYYMAVNKFADWSSAEFQAMLDRQMANKPKQSFIAKHVVDPNVQAVEEVDWRESAVLGVKDQGQCGSCWAFSTTGSLEGQLAIHKNQRVPLSEQELVDCDKVNDGCDGGLMTDAFFYIEHHGLSSEEQYPYTGVDGHCNHVKDKQVSSISGYVELDETESALADALANVGPVSIAVEADTWQFYSGGVFNNKNCGDALNHGVLAVGYTKDVFIVKNSWGTGWGEQGYIRVARGSNLCGINLMNSYPKL
For B1, the “proteolytic digestion for 30 or 60 min (LC-MS, N-terminal sequencing)” value in data set [1] was “after 30 min two distinct pairs of cleavage products were detected that corresponded to cleavage immediately N-terminal to Leu8 or to Gln10”. In data set [2], the “proteolytic digestion time course (SDS-PAGE, N-terminal sequencing)” value is on record as “The time course of β-casein digestion by c9 showed a major ˜19 kD digestion product (indicated by black arrowhead) by 2 minutes after addition of enzyme”. The “proteolytic digestion, cleavage site mapping” value in data set [3] is “κ-casein was also digested with c9 and h10 ... major detectable cleavage sites were observed after Ser54, Asp62, Serl25, and Met127”.

B2: iwm2s.pk017.h10 cathepsin L-like protease of western corn rootworm midgut (protein)
chain: MKLFILAAALIVATSANLGAFEKWTSFKATHNKSYNVIEDKLRFAVFQDNLKKIEEHNAKYESGEETYYLAVNKFADWSSAEFQAMLARQMANKPKQSFIAKHVADPNVQAVEEVDWRDSAVLGVKDQGQCGSCWAFSTTGSLEGQLAIHKNQRVPLSEQELVDCDTSRNAGCNGGLMTDAFNYVKRHGLSSESQYAYTGRDDRCKNVENKPLSSISGYVELETTEDALASAVASVGPVSIAVDADTWQLYGGGLFNNKNCRTNLNHGVLAVGYTKDAFIVKNSWGTSWGEQGYIRVARGENLCGINLMNSYPKL
As to B2, in data set [3], the “proteolytic digestion, cleavage site mapping” value was “κ-casein was also digested with c9 and h10 ... major detectable cleavage sites were observed after Ser54, Asp62, Serl25, and Met127”.

The values are drawn from US20060288448.
